Data as given in paper PMC9274004, “Deciphering the Molecular Interaction Between the Adhesion G Protein-Coupled Receptor ADGRV1 and its PDZ-Containing Regulator PDZD7” (Frontiers in Molecular Biosciences, 2022).
Entries after “also recorded” stand apart in the source; their conditions may differ.

Assays:
[1] = nanoDSF thermostability of unbound PDZD7 constructs; format: physicochemical; details: MES pH6 (50 mM), micromolar concentrations, without ligand
Method: (§1) NanoDSF experiments were performed on a Prometheus (Nanotemper) spectrometer using Prometheus NT.48 Series nanoDSF Grade High Sensitivity Capillaries. All samples were prepared in MES pH6 (50 mM) at micromolar concentrations. For the complexes, ADGRV1pbm peptide was added at a final concentration of 756 μM, diluting the samples by 5%.

PDZD7 PDZ1ext WT = assay: nanoDSF thermostability of PDZ1ext WT in complex; format: binding, murine; details: MES pH6 (50 mM), PDZ1ext WT + ADGRV1pbm 756 μM, unbound Tm 61.6°C
Method: as §1

ADGRV1 β subunit = assay: Pull-down of ADGRV1 β subunit by full-length PDZD7-GFP from HeLa cell lysates; format: binding, murine; details: PDZD7-GFP bait, anti-GFP beads, 4°C 1 h, western blot, vs no bait
Method: HeLa cells were maintained in Dulbecco’s modified Eagle’s medium (DMEM) containing 10% fetal calf serum (FCS). PDZD7 constructs correspond to the full-length murine sequence in fusion with a N-terminal strep tag and a C-terminal GFP, wild-type or carrying G103R/G228R variants, cloned in a PMT3 vector. The ADGRV1 construct corresponds to the murine β subunit of the receptor (5884-6298) cloned in a pRK5 vector. Plasmids were transfected in separate HeLa cultures using 25 μg (PDZD7) and 10 μg (ADGRV1) of DNA per 10 cm dish using TurboFect™ Transfection Reagent (ThermoFisher Scientific) at 3 μl per μg of transfected DNA. Mixes were prepared in volumes of 1 ml/plate (in DMEM), vortexed and incubated up to 30 min at room temperature, cell media were renewed before transfection. After drop by drop addition of the transfection mix, cells were maintained at 37°C for 14 h for protein expression. Cells were dissociated using Gibco™ Trypsine-EDTA (0,05%), subsequently inactivated by addition of DMEM containing 10% FCS. Cells were counted, pelleted and resuspended at similar concentrations in PBS Tween 0.01%, Dodécyl-β-D-maltoside (DDM) 0.1% containing anti-proteases (buffer). Benzonase (Sigma) was added before sonication of the cells (40 mA amplitude, 10 pulses of 12 s with 18 s intervals, in ice). An identical volume of ADGRV1 β transfected cell lysate was mixed to either PDZD7 WT, G103R or G228R transfected cell lysates. PDZ proteins have different expression levels, meaning that different amounts of sample are needed to saturate the dynabeads with the PDZ proteins. Pull down experiments have been performed several times allowing us to estimate the yield of expression of each PDZ construct for a given amount of cells. […] Target proteins were detected using mouse α-GFP (LivingColors™ JL-8, Takara) and rabbit α-ADGRV1 (custom, raised against the cytoplasmic domain) antibodies (1/2000 in 5% milk TBST), as well as secondary α-mouse and α-rabbit IgG antibodies coupled to HRP (1/2000 in 5% milk TBST). […]

ADGRV1 = details: cellular models, PDZ-PBM dependent; ref Hu et al., 2014; cited from earlier work
Description: Cochlear hair cells are the primary receptors for the detection of sound-induced vibrations. […] The shape of the bundle is critical for the cohesive deflection of the stereocilia necessary for the cell function. Morphogenesis of the hair bundle is regulated during cochlear development, but the underlying signaling pathways remain elusive. The ankle link protein complex, transiently expressed at the base of the stereocilia, is the main candidate for regulating bundle morphogenesis, with pathogenic varia ... || PDZD7 and ADGRV1 are the main candidate proteins for regulating the signaling associated with the Usher2 complex. PDZD7 is primarily a scaffolding protein, with several protein-protein interaction domains (three PDZ domains and one HHD) likely recruiting several partners at the ankle links anchoring sites ([Du et al., 2018]).

PDZD7 PDZ2ext WT = assay: nanoDSF thermostability of PDZ2ext WT in complex; format: binding, murine; details: MES pH6 (50 mM), PDZ2ext WT + ADGRV1pbm 756 μM, unbound Tm 38.5°C
Method: as §1

[2] = Aggregation / sample stability of purified PDZ2 constructs; format: physicochemical
Description: The biochemical behavior of PDZD7 PDZ2 drastically differs from PDZ1, with or without its C-terminal extension. […] In order to further establish the accessible folding states of the PDZ2 extension, we used the same metadynamics approach as for PDZ1ext and probed its conformational energy landscape (Figure 3C).

PDZD7 P1P2 WT = assay: nanoDSF thermostability of P1P2 WT in complex; format: binding, murine; details: MES pH6 (50 mM), P1P2 WT + ADGRV1pbm 756 μM, unbound Tm 41°C
Method: as §1

[3] = SAXS geometrical parameters of unbound PDZ tandem; format: physicochemical; details: without ligand, Phosphate Buffer 50 mM pH 6.5, NaCl 300 mM, TCEP 0.5 mM
Method: X-ray scattering data were collected at the SWING beamline at Soleil Synchrotron (Saclay, France). 50 μl of sample are injected on a Superdex-75 5/150 GL size exclusion column in-line with the SAXS measuring cell. PDZD7 samples are prepared in the same buffer (Phosphate Buffer 50 mM pH 6.5, NaCl 300 mM, TCEP 0.5 mM, anti-proteases). The experiment is performed at initial concentrations of 119 μM (3.1 mg/ml) for P1P2 WT and 108 μM (2.8 mg/ml) for P1P2 G103R. For complexes, 2 μl of pH-adjusted ADGRV1pbm peptide (VELRRIPIADTHL-COOH; 13,7 mM) are added to the 50 μl from the sample 1 hour before recording. Initial data processing was performed using sxCuBE, FOXTROT and PRIMUS. The radii of gyration were evaluated using Guinier approximation. The Dmax was determined from the distance distribution function P(r) obtained with the program GNOM.

[4] = Analytical UltraCentrifugation of unbound P1P2; format: physicochemical; details: AUC, 10°C, P1P2 0.4 mg/ml, Phosphate Buffer pH 6.5 (50 mM)
Method: AUC experiments were performed at 10°C using an analytical Beckman Coulter Optima ultracentrifuge equipped with a AN50-Ti rotor. The P1P2 sample was prepared at 0.4 mg/ml in Phosphate Buffer pH 6.5 (50 mM). For the complex, 10 μl of pH-adjusted ADGRV1pbm peptide (13,7 mM) were added to 300 μl of P1P2 sample. Interference profiles were analyzed with SEDFIT.

B1: PDZ1ext WT: first PDZ of mouse PDZD7 with its C-terminal extension (A81 to E192) (protein, UniProt E9Q9W7 81-192, looked up, fragment)
chain: SDIIHAVRVEKSPSGRLGFSVRGGSEHGLGIFVSKVEEGSSAERAGLCVGDKITEVNGLSLESTTMGSAVRLLTSSSCLHMMVRRMGRVPGIKFSKEKTTWVDVVNRRLVVE
For B1, the “Tm (Unbound)” value [1] was 61.6 °C and the “Tm (Bound)” value (PDZD7 PDZ1ext WT) was 61.8 °C.

B2: WT PDZD7: full-length murine PDZD7 in fusion with N-terminal strep tag and C-terminal GFP (pull-down) (protein)
chain: MARGFTVGFDPLGLGELSSGSLSSVSSRGHLGSDSGSTATRYLLRKQQRLLNGPSRGIRASSPMGRVILINSPIEANSDESDIIHAVRVEKSPSGRLGFSVRGGSEHGLGIFVSKVEEGSSAERAGLCVGDKITEVNGLSLESTTMGSAVRLLTSSSCLHMMVRRMGRVPGIKFSKEKTTWVDVVNRRLVVEKCSSTPSDRSSEDGVRRIVHLYTTSDDFCLGFNIRGGKEFGLGIYVSKVDHGGLAEENGIKVGDQVLAANGVRFDDISHSQAVEVLKGQTHIMLTIKETGRYPAYKEMVSEYCWLDRLSNGVLQQLSPASESSSSVSSYASSAPCSSGSLPSDRMDVCLGPEEPTSHGPGWGRADTAMQTEPDLDSRVETWCSVRPTVILRDTAIRSDGPSSTRHLDSALSESPKTALLLALSRPRTPITRSQSHLTLWEEKKQRKKEKSGSSGEKGALQRSKTLMNLFFKGGRQGRPAGDGHREAWTLDSRSPTKVRPRLDLEKAGSVGPVQKFVTWRLRRDRERGRALLSARSGSPSGQAPTVNEQVQAWESRRPLIQDLARRLLTDDEVLAVTRHCSRYVHEGGVEDLVRPLLAILDRPTKLLLLRDIRSVVAPTDLGRFDSMVMPVELEAFEALKSRAVGPSALRPTRQDTPPKRHLITPVPDSRGGFYLLPVNSSEDEDGEIREKLGVLKVSLGASAPHHKGIPPLQDVPVDAFSLRRGACAPPPQPPPVAPRPPRPNWLLTEPLSREDTQQNQSQTPAQSCSRSRSRSRSRSHSRGQGKSPGRRRSPSPAPIATAATANGRYHRPRKARPLLPRLLDGQVAKVGARQGPLENGRIAEEAVGNVSTGALRTITLSKMKQSLGISISGGIESKVQPMVKIEKIFPGGAAFLCGDLQAGFELVAVDGESLEQVTHQRAVDTIRRAYRNKAREPMELVVRVPGPGLLPLASDLRVVKDQSLAPDCPSALGPVDDARILTQLPPPEARQLQQSLSSALKVPQSIPKLSPILKDPHDPS
modifications: left off: strep tag, N-terminal, kept | GFP, C-terminal, kept
In the case of B2, the “binding of ADGRV1 β subunit (pull-down)” value (ADGRV1 β subunit) is listed as “a clear band is observed” and the “effect on ADGRV1 GPCR activity” value (ADGRV1) is listed as “downregulates the GPCR activity and restores cAMP levels; also recorded: downregulates ADGRV1 GPCR activity”.

B3: PDZ2ext WT: second PDZ of mouse PDZD7 with its C-terminal extension (G206 to G313) (protein)
chain: GVRRIVHLYTTSDDFCLGFNIRGGKEFGLGIYVSKVDHGGLAEENGIKVGDQVLAANGVRFDDISHSQAVEVLKGQTHIMLTIKETGRYPAYKEMVSEYCWLDRLSNG
modifications: left off: GST, N-terminal, cleaved
In the case of B3, the “Tm (Unbound)” value [1] is reported as 38.5 °C, the “Tm (Bound)” value (PDZD7 PDZ2ext WT) is reported as 47.2 °C and the sample stability ([2]; 15N-labelled PDZ2 constructs, NMR) is reported as “stable for a few hours only”. The aggregation ([2]; at temperatures higher than 15 °C, despite extensive screening of buffer conditions) was “Rapid aggregation”.

B4: P1P2 WT: PDZD7 PDZ tandem (P1P2 construct; A81 to G313) (protein, UniProt E9Q9W7 81-313, looked up, fragment)
chain: SDIIHAVRVEKSPSGRLGFSVRGGSEHGLGIFVSKVEEGSSAERAGLCVGDKITEVNGLSLESTTMGSAVRLLTSSSCLHMMVRRMGRVPGIKFSKEKTTWVDVVNRRLVVEKCSSTPSDRSSEDGVRRIVHLYTTSDDFCLGFNIRGGKEFGLGIYVSKVDHGGLAEENGIKVGDQVLAANGVRFDDISHSQAVEVLKGQTHIMLTIKETGRYPAYKEMVSEYCWLDRLSNG
For B4, the “Tm (Unbound)” value [1] was 41 °C, the “Tm (Bound)” value (PDZD7 P1P2 WT) was 57.2 °C and the “radius of gyration (Rg)” value ([3]; Guinier approximation) was 27.8 Å. For the same molecule, the “interatomic maximum distance (Dmax)” value ([3]; P(r) with GNOM) was 109.5 Å and the sedimentation coefficient [4] was 1.6 Svedberg (S).
